The values that follow come from paper PMC6218445, “Pyruvate kinase M2 regulates homologous recombination-mediated DNA double-strand break repair” (Cell Research, 2018).

For this assay, the target named is T1, pyruvate kinase M2 (human (endogenous in U87), UniProt P14618 1-531).
T1 construct: pyruvate kinase M2 (PKM2), endogenous in the human glioblastoma cell line U87; In irradiated cells part of the nuclear PKM2 is phosphorylated at T328 by ATM; The lysates hold a mixture; also called PKM2; source: endogenous, U87 lysate
T1 sequence (P14618 whole entry): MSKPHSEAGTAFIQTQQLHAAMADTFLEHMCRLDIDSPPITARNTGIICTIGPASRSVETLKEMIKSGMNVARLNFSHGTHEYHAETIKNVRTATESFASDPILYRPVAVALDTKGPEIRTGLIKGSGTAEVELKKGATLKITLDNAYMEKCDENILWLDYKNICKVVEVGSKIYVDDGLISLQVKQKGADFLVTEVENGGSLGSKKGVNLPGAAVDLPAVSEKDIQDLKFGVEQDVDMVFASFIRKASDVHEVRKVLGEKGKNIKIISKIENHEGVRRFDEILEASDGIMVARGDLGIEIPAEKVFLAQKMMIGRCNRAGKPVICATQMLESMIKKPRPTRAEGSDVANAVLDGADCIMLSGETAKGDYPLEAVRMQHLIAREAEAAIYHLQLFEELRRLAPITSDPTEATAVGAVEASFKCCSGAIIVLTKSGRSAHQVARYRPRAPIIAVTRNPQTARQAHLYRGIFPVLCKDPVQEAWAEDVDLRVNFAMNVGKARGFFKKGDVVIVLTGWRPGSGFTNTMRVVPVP
The assay can be described thus: not stated; association of PKM2 and CtIP after irradiation, with the ATM inhibitor KU55933 against without; legend of Fig. S7a not shown. The following applies: partners not purified.

B1: CtBP-interacting protein (natural protein, human (endogenous in U87), UniProt Q99708 1-897, looked up)
chain: MNISGSSCGSPNSADTSSDFKDLWTKLKECHDREVQGLQVKVTKLKQERILDAQRLEEFFTKNQQLREQQKVLHETIKVLEDRLRAGLCDRCAVTEEHMRKKQQEFENIRQQNLKLITELMNERNTLQEENKKLSEQLQQKIENDQQHQAAELECEEDVIPDSPITAFSFSGVNRLRRKENPHVRYIEQTHTKLEHSVCANEMRKVSKSSTHPQHNPNENEILVADTYDQSQSPMAKAHGTSSYTPDKSSFNLATVVAETLGLGVQEESETQGPMSPLGDELYHCLEGNHKKQPFEESTRNTEDSLRFSDSTSKTPPQEELPTRVSSPVFGATSSIKSGLDLNTSLSPSLLQPGKKKHLKTLPFSNTCISRLEKTRSKSEDSALFTHHSLGSEVNKIIIQSSNKQILINKNISESLGEQNRTEYGKDSNTDKHLEPLKSLGGRTSKRKKTEEESEHEVSCPQASFDKENAFPFPMDNQFSMNGDCVMDKPLDLSDRFSAIQRQEKSQGSETSKNKFRQVTLYEALKTIPKGFSSSRKASDGNCTLPKDSPGEPCSQECIILQPLNKCSPDNKPSLQIKEENAVFKIPLRPRESLETENVLDDIKSAGSHEPIKIQTRSDHGGCELASVLQLNPCRTGKIKSLQNNQDVSFENIQWSIDPGADLSQYKMDVTVIDTKDGSQSKLGGETVDMDCTLVSETVLLKMKKQEQKGEKSSNEERKMNDSLEDMFDRTTHEEYESCLADSFSQAADEEEELSTATKKLHTHGDKQDKVKQKAFVEPYFKGDERETSLQNFPHIEVVRKKEERRKLLGHTCKECEIYYADMPAEEREKKLASCSRHRFRYIPPNTPENFWEVGFPSTQTCMERGYIKEDLDPCPRPKRRQPYNAIFSPKGKEQKT
notes: also called CtIP; source: endogenous, U87 lysate
As to B1, the “fold reduction of the association by KU55933 after irradiation” value was above 2.5 fold.
